The data set deals with T1, p1 NTR (Tetrahymena, UniProt Q22VV9 1-150).
T1 sequence: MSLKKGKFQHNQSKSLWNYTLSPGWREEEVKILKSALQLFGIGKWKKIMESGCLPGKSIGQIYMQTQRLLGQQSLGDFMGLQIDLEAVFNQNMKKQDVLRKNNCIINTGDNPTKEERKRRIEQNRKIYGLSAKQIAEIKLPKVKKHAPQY
Nature of the data set: fluorescence polarization.

B1: umDNA 6-FAM (dsDNA)
DNA 1: AACTTTCTTAACATCTTAACTTTAACT
DNA 2: AGTTAAAGTTAAGATGTTAAGAAAGTT
Take B1: the Kd (commonly the free concentration of one partner at which half of the binding sites on the other are occupied at equilibrium, for simple one-to-one binding) was 37 nM.

B2: hmDNA 6-FAM (27ATrich_6mA_s / 27ATrich_6FAM_a) (dsDNA)
DNA 1: AACTTTCTTAACATCTTAACTTTAACT
DNA 2: AGTTAAAGTTAAGATGTTAAGAAAGTT
modifications: N6-methyl-dA at position 13 of strand 1
With B2, the Kd is 35 nM.

These data come from article PMC12485025.
